Data from the nanobody polyreactivity screen of Harvey et al. (2022).

Test: yeast display, Sf9 membrane polyspecificity reagent, FACS + sequencing; frameworks hold sequencing errors
Summary of the method: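 After 36–48 hours of galactose induction, yeast (Saccharomyces cerevisiae BJ5465) displaying a synthetic nanobody library were stained at 4 °C for 1 hour with 10% biotinylated, detergent-solubilized Sf9 membrane reagent. Streptavidin microbeads enriched the stained cells before FACS sorting into low and high (top ~1%) gates on anti-HA and streptavidin fluorescence. Each clone's polyreactivity label reflects its gate of origin.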

Row | Sequence | polyreactivity (PSR sort gate)
1 | QVQLVESGGGLVQAGGSLRLSCAASGRTFYPNAMGWSRQAPGKERELVAAINSGGSTYYADSVKGRFTISRDNAKNTVYLQMNSLKPEDTAVYYCNAERRIAYEYWGQGTQVTVSS | low polyreactivity
2 | QVQLVESGGGLVQAGGSLRLSCAASGRTFYPNAMGWYRQAPGKEREFVARISDSGGSTYYADSVKGRFTISRDNAKNTVYLLMNSLKPEDTAVYYCAADYGDPRVNEYDYWGQGTQVTVSS | low polyreactivity
3 | QVQLVESGGGLVQAGGSLRLSCAASGRTFYPSAMGWYRQAPGKERQLVAAITTSGGRTYYADSVKGRFTISRDNAKNTVYLQMNSLKPEDTAVYYCAKAYREGEGKFDYWGQGTQVTVSS | high polyreactivity
4 | QVQLVESGGGLVQAGGSLRLSCAASGRTFYPYAKGWYRQAPGKERELVAAIRWSGGSTYYADSVKGRFTISRDNAKNTVYLQMNSLKPEDTAVYYCNADWKSYRGPKFDYWGQGTQVTVSS | low polyreactivity
5 | QVQLVESGGGLVQAGGSLRLSCAASGRTFYPYAMGWYRQAPGKARELVASINWSGASTYYADSVKGRFTISRDNAKNTVYLQMNSLKPEDTAVYYCAARYTPRRYYYWGQGTHVTVSS | high polyreactivity
6 | QVQLVESGGGLVQAGGSLRLSCAASGRTFYPYAMGWYRQAPGKERELVAAISSGGGSTYYADSVKGRFTISRDNAKNTVYLQMNSLKPEDTAVYYCAKRAGWAGWYYRNDYWGQGTQVTVSS | high polyreactivity
7 | QVQLVESGGGLVQAGGSLRLSCAASGRTFYPYGMGWYRQAPGKERELVATITTGGSTNYADSVKGRFTISRDNAKTTVYLQMNSLKPEDTAVYYCAAKTRIRYYSWGQGTQVTVSS | low polyreactivity
8 | QVQLVESGGGLVQAGGSLRLSCAASGRTFYQYYMGWYRQSPGKEREVVAAIDWSGGSTYYADSVKGRFTISRDNAKNTVYLQMNSLKPEDTAVYYCNADAYPHPVVGYDYWGQGTQVTVSS | low polyreactivity
9 | QVQLVESGGGLVQAGGSLRLSCAASGRTFYRNAMGWYRQAPGKERELVAAIRGSGSSTYYADSVKGRFTISRDNAKNTVYLQMNSLKPEDTAVYYCAADYITYNGYARYYYWGQGTQVTVSS | high polyreactivity
10 | QVQLVESGGGLVQAGGSLRLSCAASGRTFYRNPMGWYRQAPGKEWELVAGITRCGRTYYADSVKGRFRISRDNAKNTVYLQMNCLKPEDTAVYYCNKTGGNGNDYWGQGTQVTVSS | low polyreactivity
11 | QVQLVESGGGLVQAGGSLRLSCAASGRTFYRNTMGWYRQAPGKERELVAGISYSGGSTYYADSVKGRFTISRDNAKNTVYLQMNSLKPEDTAVYYCATVRRYGYGYDYWGQGTQVTVSS | high polyreactivity
12 | QVQLVESGGGLVQAGGSLRLSCAASGRTFYRYAMGWYRQAPGKERELVAAITTSGGSTYYADSVKGRFTISRDNAKNTVYLQMNSLKPEDTAVYYCAATYYGYHIRDDYWGQGTQVTVSS | low polyreactivity
13 | QVQLVESGGGLVQAGGSLRLSCAASGRTFYRYAMGWYRQAPGKERELVARIRSGGSTNYADSVKGRFTISRDNAKNTVYLQMNSLKPEDTAVYYCAARPGAAGYKYYYWGQGTQVTVSS | high polyreactivity
14 | QVQLVESGGGLVQAGGSLRLSCAASGRTFYRYAMGWYRQAPGKERELVARITSGSSTNYADSVKGRFTISRDNAKNTVYLQMNSLKPEDTAVYYCAKDPRPYLDYDYWGQGTQVTVSS | low polyreactivity
15 | QVQLVESGGGLVQAGGSLRLSCAASGRTFYRYTMGWYRQAPGTERELVAAISWSGGSTYYADSVKGRFTSSRDNAKNTVYLQMNSLKPEDTAVYYCAKATYWLYVQWYTYGYWGQGTQVTVSS | high polyreactivity
16 | QVQLVESGGGLVQAGGSLRLSCAASGRTFYRYVMGWYRQAPGKERELVATITNGGSTNYADSVKGRFTISRYNAKNTVYLQMNSLKPEDTAVYYCAADYPGYVGWPYSYEYYYWGQCTQVTVSS | low polyreactivity
17 | QVQLVESGGGLVQAGGSLRLSCAASGRTFYSNTMGWYRQAPGNERELVAAISRSGVGTYYADSVKGRFTISRDIAKNSVYLHMNSLKPEDTAVYYCAALPTGKSGYLYDYWGQGTQVTVSS | high polyreactivity
18 | QVQLVESGGGLVQAGGSLRLSCAASGRTFYSYAMGWYRPAPGKERELVAAINSGGDTYYADSVKGRFTISRDNAKNTVYLQMNSLKPEDTAVYYCAADYYWEMDSWGQGTQVTVSS | low polyreactivity
19 | QVQLVESGGGLVQAGGSLRLSCAASGRTFYSYAMGWYRQAPGKERELVAAITWRASTYYADSVKGRFTISRDNAKNTVYLQMNSLKPEDTAVYYCAVRDYRPRYYTFLYNSPYDYWGQGTQVTVSS | high polyreactivity
20 | QVQLVESGGGLVQAGGSLRLSCAASGRTFYSYAMGWYRQAPGKERELVAGITWSGTSTYYADSVKGRFTISRDNAKNTVYLQMNSLKPEDTAVYYCAAATLYSRYDYWGQGSQVTVSS | low polyreactivity
21 | QVQLVESGGGLVQAGGSLRLSCAASGRTFYSYTMGWYRQAPGKERELVAAINRGGSTYYADSVKGRFTISRDNAKNTVYLQMNSLYPVDNAVYYCAVGYAHSSNRRYYYKQTHGYWGQGTQVTVSS | low polyreactivity
22 | QVQLVESGGGLVQAGGSLRLSCAASGRTFYSYVMGWYRQAPGKERELVAAISGRGVSTYYADSVKGRFTISRDNAKNTVYLQMNSLKPEDTAVYYCAAETVHGSADFDYWGQGTQVTVSS | low polyreactivity

Row | Sequence | polyreactivity (PSR sort gate)
23 | QVQLVESGGGLVQAGGSLRLSCAASGRTFYTNAMGRYRQAPGKERELVAAISRGGGRTYYADSVKGRFTISRDNAKNTVYLQMNSLKPEDTAVYYCAASPYQGQGREYYYWGQGTQVTVSS | high polyreactivity
24 | QVQLVESGGGLVQAGGSLRLSCAASGRTFYTNAMGWYRQAPGKERELVAAISRGGGRTYYADSVKGRFTISRDNAKNTVYLQMNSLKPEDTAVYYCAASPYQGQGREYYYWGQGTQVTVSS | high polyreactivity
25 | QVQLVESGGGLVQAGGSLRLSCAASGRTFYTNAMGWYRQAPGKERELVASISGSGGSTYYADSVKGRFTISRDNAKNTVYLQMNSLKPEDTAVYYCAADPAPTVEFGKYDYWGQGTQVTVSS | low polyreactivity
26 | QVQLVESGGGLVQAGGSLRLSCAASGRTFYTYAMGLYRQAPGNERELVATITSGGSTYYADSVKGRFTISRDNAKNTVYLQMNSLKPEDTAVYYCARRRRESRQDGDYWVQGTQVTVSS | high polyreactivity
27 | QVQLVESGGGLVQAGGSLRLSCAASGRTFYTYAMGWYRQAPGKERELVAAISSSGSTYYADSVKGRFTISRDNAKNTVYLQMNSLKPEDTAVYYCNARTSRYRRGGDSWGQGTQVTVSS | high polyreactivity
28 | QVQLVESGGGLVQAGGSLRLSCAASGRTFYTYAMGWYRQAPGKESELVATIRWSGGSTRYADSVKGRFTISRDYAKNTVYLQMNSLKPEDTAVYYCAADNYYRRKYKYDYWGQGNQVTVSS | high polyreactivity
29 | QVQLVESGGGLVQAGGSLRLSCAASGRTFYTYTMGWYRQAPGKERELVAAISKSGTSTYYADSVKGRFTISRDNAKNTVYLQMNSLKPEDTAVYYCAARAYYARFLMGYWGQGTQVTVSS | high polyreactivity
30 | QVQLVESGGGLVQAGGSLRLSCAASGRTFYTYVMGWYRQAPGKEREFVAAITYSGGSTYYADSVKGRFTISRDNAKNTVYLQMNSLKPEDTAVYYCNAEWTYSEWYGQYLEFDYWGQGTQVTVSS | high polyreactivity
31 | QVQLVESGGGLVQAGGSLRLSCAASGRTFYVNAMGWYRQAPGKEMELVAAITNGGRTNYADSVKGRFTISRDNAKNTVYLQMNSLKPEDTAVYYCNKVSLRTQSAQFHYWGQGTQVTVSS | high polyreactivity
32 | QVQLVESGGGLVQAGGSLRLSCAASGRTFYVYAMGWYRQAPGKERELVAAISADGGRTYYADSVKGRFTISRDNAKNTVYLQMNSLKPEDTAVYYCAAWRHTLGDYWGQGTQVNVSS | high polyreactivity
33 | QVQLVESGGGLVQAGGSLRLSCAASGRTFYVYAMGWYRQAPGKERELVAAISWSGGSTYYADSVKGRFTISRDNAKNTVYLQMNSLKPEDTAVYYCAAQTYQRHVVAYDYWGQGTQVTVSS | low polyreactivity
34 | QVQLVESGGGLVQAGGSLRLSCAASGRTFYVYAMGWYRQAPGKERELVAAITSGGRTYYADSVKGRFTISRDNAKNTVYLQMNSLKPEDTAVYYCAVGNGLSRYVYGDYDYWGQGTQVTVSS | high polyreactivity
35 | QVQLVESGGGLVQAGGSLRLSCAASGRTFYVYTMGWYRQAPGKERELVAAITSGGSTNYADSVKGRFTISRDNAKNTVYLQMNSLKPEDTAVYYCAARVSTVFKRYYYCGQGTQVTVSS | high polyreactivity
36 | QVQLVESGGGLVQAGGSLRLSCAASGRTFYWNAMGWYRQAPGKEREFVAAITNTAGSTYYADSVKGRFTISRDNAKNTVYLQMNSLNPEDTAVYYCAKSGNGGYRTYLRDYWGQGTQVTVSS | low polyreactivity
37 | QVQLVESGGGLVQAGGSLRLSCAASGRTFYWNTMGWYRQAPGKERELVAAINYSGGSTYYADSVKGRFTISRDNAKNTVYLQMNSLKPEDTAVYYCAAYFHGYKSLHRARSEYNYWGQGTQVNVSS | high polyreactivity
38 | QVQLVESGGGLVQAGGSLRLSCAASGRTFYWYVMGWYRQAPGKERELVATITSGGSSNYADSVKGRFTISRDNAKNTVYLQRNSLKPEDTAVYYCNRDRLVRYEAEYDYWGQGTQVTVSS | low polyreactivity
39 | QVQLVESGGGLVQAGGSLRLSCAASGRTFYYNAMGWYRQAPGKERELVAAISSRGGNTYYADSVKGRFTISRDNAKNTVYYQMNSLKPEDTAVYYCARRYPYPAYEYGYWGQGTQVTVSS | high polyreactivity
40 | QVQLVESGGGLVQAGGSLRLSCAASGRTFYYNAMGWYRQAPGKERELVAAISWSGGSTYYADSVKGRFTISRDNAKNTVYLQMNSLKPEDTAVYYCAADYEYSRAYGYDYWGQGTQVTVSL | low polyreactivity
41 | QVQLVESGGGLVQAGGSLRLSCAASGRTFYYNPMGWYRQAPGKERELVAAITQSGGRTYYADSVKGRFTISRDNAKNTVYVQMNSVKPEDSAVYYFYAVRPVRGYIYQGYNYWGQGTQVTVSS | high polyreactivity
42 | QVQLVESGGGLVQAGGSLRLSCAASGRTFYYNTKGWYRQAPGKERELVASISGSGGRTYFADSVKGRFTISRDTAKNTVYLQMNSLKPEDTAVYYCASSRARRSRYILDYWGQGTQVTVSS | high polyreactivity
43 | QVQLVESGGGLVQAGGSLRLSCAASGRTFYYNTMGWYRQAPGKERELVAALSSRGGTTSYADSVKGRFTISRDNAKNSVYLQMNSLKPEDTAVYYCNAETYRRGSYDYWGQGTQVTVSS | high polyreactivity
